{"source": "patent US20080241162A1", "about": "(GENERAL ANTIBODIES AND BIOTECHNOLOGIES S R L, published 2008)"}
{"target": "purified recombinant HCV/E2 of 1a genotype (strain H) expressed in CHO cells (Hepatitis C virus genotype 1a (strain H), UniProt P27958 388-664)", "sequence (P27958 388-664 limits assumed)": "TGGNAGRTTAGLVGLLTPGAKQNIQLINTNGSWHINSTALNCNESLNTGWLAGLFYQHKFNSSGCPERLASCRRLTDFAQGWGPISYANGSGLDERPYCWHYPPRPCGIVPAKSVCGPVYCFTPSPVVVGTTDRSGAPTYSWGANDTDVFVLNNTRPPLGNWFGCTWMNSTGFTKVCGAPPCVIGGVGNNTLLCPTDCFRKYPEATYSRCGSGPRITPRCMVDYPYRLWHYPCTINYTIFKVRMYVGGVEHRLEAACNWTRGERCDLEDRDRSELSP", "units": {"IC50": "µg/mL"}}
{"binder": "human recombinant Fab e8 (Fab, V domains shown) VH: LLEQSGAEVKMPGATVKVSCQSSRYTFTSYGIGWVRQAPGQGLEWMGWISGYTHETKYAQSFQGRVTMTAETSTGTAYMELRSLRSDDTATYYCARDGGGRVVVPPTHLRAFDVWGQGT VL: MAELTQSPGTLSLSPGERATLSCRASHRVNNNFLAWYQQKPGQAPRLLISGASTRATGIPDRFSGSGSGTDFTLTISRLEPDDFAVYYCQQYGDSPLYSFGQGT", "IC50": "> 40"}
{"binder": "human recombinant Fab e20 (Fab, V domains shown) VH: LLEQSGAEVKKPGSSVKVSCKASGDHYGINWVRQAPGQGLEWMGGIIPVFGTTTYAQKFQGRATITADDSTGTAFLELTRLTFDDTAVYFCATPHQLHVLRGGKALSPWDYWGQGT VL: MAELTQSPATLSVSPGERATLSCRASQSVSSNLAWYQQKRGQAPSLLIYGTSTRATGIPARFSGSGSGTEFTLTISSLQSEDFAVYYCQQYNDWPSTFGQGT", "IC50": 3}
{"binder": "human recombinant Fab e301 (Fab, V domains shown) VH: LLEQSGSEVKKPGSSVRVSCTTSGGTLSDYGFNWLRQAPGQGPEWMGGIIPLFRRTTYGQKFQGRLTITADESTGATYMELSSLRSDDTAVYYCAREKVSVLTGGKSLHYFEYWGKGT VL: MAELTQSPATLSVSPGERATLSCRASQSVSSRLAWYQQKRGQAPSLLIYDTSSRATGVPARFSASGSGTQFTLTISSLQSEDFALYYCQQYNDWPSTFGQGT", "IC50": 3}
{"binder": "human recombinant Fab e509 (Fab, V domains shown) VH: LLEESGAEVKKPGSSVKVSCKTSGDTFRYGITWVRQAPGQGLEWMGQIMPTFATATYAQRFQGRVTISADESTSTAYLEVRSLRSEDTAVYYCATPRQVTILRGPKALSPWDYWGQGT VL: not shown", "IC50": "< 0.035"}
{"binder": "human recombinant Fab e137 (Fab, V domains shown) VH: LLEQSGSEVKVPGSSLKVSCKTSGGTFSTYTFSWVRQAPGQGLEWMGGITPIIGIANYARNFQDRVTITADESTSTVYMEVRRLRSEDTAVYYCAKTSEVTATRGRTFFYSAMDVWGQGT VL: MAELTQSPSFLSASVGDRVTITCRASQGISNYLAWYQQKPGKAPKLLIYAASTLQSGVPSRFSGSGSWTEFTLTISRLQPEDFATYYCQHLNTYPWTFGQGT", "IC50": 40}
